Data on one protein can be found in publication PMC5734868 (ACS infectious diseases, 2017).

The data set concerns the molecule itself. Put plainly: SDS-PAGE of semi-denatured protein.

B1: M. tuberculosis aspartate decarboxylase PanD, wild type (enzyme)
chain: MLRTMLKSKIHRATVTCADLHYVGSVTIDADLMDAADLLEGEQVTIVDIDNGARLVTYAITGERGSGVIGINGAAAHLVHPGDLVILIAYATMDDARARTYQPRIVFVDAYNKPIDMGHDPAFVPENAGELLDPRLGVG
In the case of B1, the binding result is given as “binds”.
